Molecular target: Spike protein of the COVID-19 Spike-ACE2 Binding Assay Kit (Raybiotech) (SARS-CoV-2) (UniProt P0DTC2)

“human SAT Nb-Fc control VH-Ab-8 (HAb8-S) (Fc fusion)” was tested, and the IC50 was 79 pM.

From US20260150817A1
